From the supplement of paper PMC9876800

System: peptide library, one residue held at a place counted from the S/T acceptor
Test: relative phosphorylation of the sub-library (ratio to the mean residue at this position); higher = residue favoured
How it was run: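 Purified recombinant kinases were reacted in 384-well plates with biotinylated degenerate peptide sub-libraries, each having one residue fixed at one position around a central Ser/Thr. The reaction mix contained 50 μM peptide plus 50 μM ATP spiked with γ-32P-ATP and ran for 90 min under kinase-specific conditions. Relative sub-library phosphorylation, taken from densitometry of phosphorimaged streptavidin membrane spots, is a ratio to the mean residue at that position.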

Chain of VRK2, construct: Full length, human (Q86Y07 whole entry, looked up): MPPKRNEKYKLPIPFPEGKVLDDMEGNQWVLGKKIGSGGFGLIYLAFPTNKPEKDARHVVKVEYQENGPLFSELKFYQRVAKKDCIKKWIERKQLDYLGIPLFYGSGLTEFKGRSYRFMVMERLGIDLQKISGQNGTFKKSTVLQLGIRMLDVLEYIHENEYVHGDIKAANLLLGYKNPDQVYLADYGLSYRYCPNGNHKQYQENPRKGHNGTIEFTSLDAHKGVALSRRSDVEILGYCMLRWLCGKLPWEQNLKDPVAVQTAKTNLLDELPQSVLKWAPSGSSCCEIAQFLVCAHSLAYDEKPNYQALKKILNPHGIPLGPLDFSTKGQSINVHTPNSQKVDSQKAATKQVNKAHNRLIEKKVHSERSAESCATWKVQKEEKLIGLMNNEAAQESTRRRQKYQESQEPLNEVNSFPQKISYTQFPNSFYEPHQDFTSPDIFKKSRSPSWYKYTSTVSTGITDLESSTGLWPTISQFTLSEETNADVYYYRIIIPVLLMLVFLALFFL
Chain of TTBK2, construct: aa1-450, human (Q6IQ55 1-450, looked up): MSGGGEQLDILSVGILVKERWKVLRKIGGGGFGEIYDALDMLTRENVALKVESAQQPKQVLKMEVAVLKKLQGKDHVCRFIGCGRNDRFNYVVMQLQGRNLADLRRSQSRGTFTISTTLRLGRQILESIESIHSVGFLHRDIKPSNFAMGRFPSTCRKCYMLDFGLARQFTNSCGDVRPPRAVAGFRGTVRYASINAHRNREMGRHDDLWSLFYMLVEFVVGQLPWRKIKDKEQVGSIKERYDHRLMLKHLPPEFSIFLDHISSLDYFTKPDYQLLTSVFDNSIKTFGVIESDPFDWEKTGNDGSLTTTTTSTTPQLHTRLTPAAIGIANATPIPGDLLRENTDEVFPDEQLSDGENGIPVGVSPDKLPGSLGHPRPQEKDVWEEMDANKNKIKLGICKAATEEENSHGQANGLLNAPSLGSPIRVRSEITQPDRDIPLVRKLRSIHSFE
Chain of VRK1, construct: Full length, human (Q99986 whole entry, looked up): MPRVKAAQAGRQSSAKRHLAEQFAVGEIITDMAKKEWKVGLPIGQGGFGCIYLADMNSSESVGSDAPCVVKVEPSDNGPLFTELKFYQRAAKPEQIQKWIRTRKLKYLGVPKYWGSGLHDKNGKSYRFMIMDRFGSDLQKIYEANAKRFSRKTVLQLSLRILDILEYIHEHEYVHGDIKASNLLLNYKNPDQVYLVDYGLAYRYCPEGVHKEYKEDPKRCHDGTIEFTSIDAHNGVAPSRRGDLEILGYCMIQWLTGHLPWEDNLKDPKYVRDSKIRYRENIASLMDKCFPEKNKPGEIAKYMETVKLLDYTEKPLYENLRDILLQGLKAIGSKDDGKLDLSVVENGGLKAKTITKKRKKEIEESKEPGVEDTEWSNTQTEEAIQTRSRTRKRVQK

TSSK2, construct: Full length, human (from UniProt Q96PF2)
relative phosphorylation
Conditions | at +1 | at +2 | at +3 | at +4 | at -1 | at -2 | at -3 | at -4 | at -5
A fixed | 0.97 | 0.852 | 0.804 | 0.774 | 1.18 | 1.86 | 1.24 | 1.3 | 1.2
D fixed | 0.871 | 0.578 | 1.44 | 0.8 | 0.771 | 0.379 | 0.466 | 0.655 | 0.247
E fixed | 1.25 | 0.793 | 0.998 | 0.629 | 0.932 | 0.42 | 0.671 | 1.04 | 0.216
F fixed | 1.06 | 1.27 | 1.37 | 1.43 | 0.685 | 0.699 | 0.589 | 0.583 | 0.882
G fixed | 0.625 | 0.388 | 0.688 | 0.663 | 0.74 | 0.939 | 1.19 | 1.22 | 0.439
H fixed | 1.05 | 2.95 | 1.53 | 0.822 | 0.874 | 0.952 | 0.933 | 1.12 | 0.518
I fixed | 0.683 | 1.3 | 0.642 | 1.47 | 0.673 | 0.954 | 0.734 | 0.816 | 1.75
K fixed | 1.41 | 0.47 | 1.04 | 0.766 | 1.68 | 2.3 | 1.86 | 1.99 | 0.569
L fixed | 0.92 | 1.27 | 0.834 | 1.98 | 0.847 | 0.55 | 0.67 | 0.877 | 3.08
M fixed | 0.965 | 1.1 | 0.944 | 1.51 | 0.893 | 0.725 | 0.668 | 1.19 | 1.32
N fixed | 1.25 | 0.861 | 1.49 | 0.942 | 0.96 | 1.17 | 0.824 | 0.829 | 0.393
P fixed | 0.143 | 0.438 | 0.324 | 0.846 | 1.72 | 0.513 | 1.27 | 0.348 | 1.34
Q fixed | 1.31 | 1.09 | 0.95 | 0.882 | 1.41 | 1.08 | 0.935 | 0.849 | 0.71
R fixed | 1.78 | 0.574 | 1.11 | 0.648 | 1.49 | 1.77 | 2.96 | 1.85 | 0.952
V fixed | 0.867 | 1.02 | 0.677 | 1.25 | 0.763 | 1.47 | 0.802 | 0.921 | 2.15
W fixed | 0.789 | 0.915 | 1.28 | 0.941 | 0.6 | 0.452 | 0.598 | 0.594 | 0.541
Y fixed | 1.06 | 1.13 | 0.887 | 0.646 | 0.788 | 0.779 | 0.587 | 0.808 | 0.69
pThr fixed | 1.02 | 0.78 | 0.485 | 0.581 | 0.426 | 0.262 | 0.804 | 0.734 | 0.503
pTyr fixed | 0.925 | 0.79 | 0.814 | 0.556 | 0.831 | 0.284 | 0.641 | 0.428 | 0.752

TTBK2, construct: aa1-450, human (from UniProt Q6IQ55)
relative phosphorylation
Conditions | at +1 | at +2 | at +3 | at +4 | at -1 | at -2 | at -3 | at -4 | at -5
A fixed | 0.693 | 1.88 | 1.11 | 1.02 | 0.912 | 1.25 | 0.986 | 0.998 | 1.03
D fixed | 0.298 | 0.221 | 0.968 | 0.919 | 0.604 | 1.91 | 1.38 | 1.34 | 0.944
E fixed | 0.913 | 0.22 | 1.42 | 0.928 | 0.64 | 1.36 | 1.2 | 1.08 | 0.905
F fixed | 1.38 | 0.907 | 1.07 | 0.85 | 0.951 | 0.802 | 0.844 | 1.11 | 1.08
G fixed | 0.29 | 0.615 | 1.21 | 1.17 | 0.563 | 0.964 | 1.19 | 1.18 | 1.28
H fixed | 0.878 | 1.48 | 1.09 | 0.983 | 1.05 | 0.867 | 1.18 | 0.996 | 1.03
I fixed | 1.72 | 1.07 | 1.01 | 0.853 | 1.24 | 0.742 | 0.949 | 0.881 | 0.99
K fixed | 0.739 | 0.913 | 0.707 | 0.996 | 1.32 | 0.67 | 0.884 | 1.12 | 1.15
L fixed | 1.5 | 0.733 | 1.03 | 0.822 | 1.12 | 1.29 | 0.807 | 0.811 | 0.699
M fixed | 1.52 | 1.38 | 1.1 | 1 | 1.14 | 0.853 | 0.972 | 0.859 | 0.827
N fixed | 0.329 | 0.553 | 0.594 | 0.92 | 0.942 | 1.07 | 1.04 | 0.841 | 0.847
P fixed | 0.115 | 0.31 | 0.495 | 1.24 | 0.805 | 1.35 | 0.834 | 0.837 | 0.981
Q fixed | 1.03 | 0.57 | 1 | 0.858 | 0.741 | 0.994 | 0.879 | 0.818 | 0.771
R fixed | 1.1 | 1.8 | 0.801 | 1.29 | 1.71 | 0.743 | 1.13 | 1.06 | 1.41
V fixed | 1.42 | 0.908 | 1.07 | 0.75 | 1.12 | 0.81 | 0.75 | 0.898 | 0.937
W fixed | 1.45 | 1.91 | 1.1 | 1.4 | 0.93 | 0.69 | 0.885 | 1.08 | 0.946
Y fixed | 1.63 | 1.54 | 1.23 | 0.998 | 1.22 | 0.643 | 1.09 | 1.1 | 1.18
pThr fixed | 0.576 | 0.426 | 0.831 | 0.97 | 0.7 | 2.61 | 1.78 | 1.55 | 1.02
pTyr fixed | 1.7 | 5.77 | 1.16 | 0.752 | 1.02 | 2.59 | 2.62 | 1.84 | 1.77

VRK1, construct: Full length, human (from UniProt Q99986)
relative phosphorylation
Conditions | at +1 | at +2 | at +3 | at +4 | at -1 | at -2 | at -3 | at -4 | at -5
A fixed | 0.79 | 0.924 | 1.23 | 0.978 | 0.758 | 1.02 | 1.09 | 1.03 | 1.08
D fixed | 0.363 | 0.406 | 0.525 | 0.96 | 0.661 | 0.802 | 0.824 | 0.886 | 0.865
E fixed | 0.548 | 0.393 | 0.461 | 0.739 | 0.608 | 0.645 | 0.81 | 0.927 | 0.837
F fixed | 0.972 | 0.746 | 0.877 | 1.01 | 1.04 | 0.8 | 0.902 | 1.02 | 1.01
G fixed | 0.532 | 0.549 | 1.7 | 1.31 | 0.648 | 2.31 | 1.45 | 1.34 | 1.34
H fixed | 0.951 | 0.83 | 1.79 | 1.03 | 1.17 | 1.21 | 1.15 | 1.15 | 1.01
I fixed | 0.921 | 1.63 | 0.573 | 0.884 | 1.31 | 0.622 | 0.772 | 0.859 | 0.822
K fixed | 1.4 | 1.45 | 0.815 | 0.87 | 0.984 | 0.759 | 1.02 | 0.865 | 0.88
L fixed | 0.642 | 1.22 | 0.637 | 0.985 | 1.33 | 0.764 | 0.745 | 0.796 | 0.646
M fixed | 1.11 | 1.67 | 0.865 | 1.06 | 1.06 | 0.946 | 0.862 | 0.916 | 0.835
N fixed | 0.724 | 0.64 | 1.65 | 0.997 | 0.843 | 1.38 | 0.982 | 1.06 | 0.919
P fixed | 0.305 | 0.423 | 0.456 | 0.688 | 0.738 | 1.25 | 1.28 | 1.02 | 1.21
Q fixed | 1.4 | 1.34 | 0.988 | 0.952 | 0.977 | 1.19 | 1.03 | 0.962 | 1.01
R fixed | 2.6 | 1.2 | 1.22 | 1.33 | 1.03 | 1.01 | 1.3 | 0.978 | 1.23
V fixed | 1.39 | 2.09 | 0.723 | 0.75 | 1.53 | 0.616 | 0.848 | 0.97 | 1.02
W fixed | 1.15 | 0.695 | 1.2 | 1.32 | 1.02 | 0.815 | 0.931 | 1.14 | 1.13
Y fixed | 1.19 | 0.795 | 1.29 | 1.14 | 1.3 | 0.856 | 0.999 | 1.07 | 1.16
pThr fixed | 0.771 | 0.821 | 0.698 | 0.728 | 0.751 | 0.781 | 0.938 | 0.862 | 0.958
pTyr fixed | 0.752 | 0.601 | 0.942 | 1.37 | 1.03 | 0.723 | 1 | 0.967 | 1.05

VRK2, construct: Full length, human (from UniProt Q86Y07)
relative phosphorylation
Conditions | at +1 | at +2 | at +3 | at +4 | at -1 | at -2 | at -3 | at -4 | at -5
A fixed | 0.906 | 0.925 | 0.998 | 1.07 | 0.943 | 1 | 1.06 | 1.12 | 1.08
D fixed | 0.579 | 0.622 | 0.675 | 0.977 | 0.788 | 0.836 | 0.812 | 0.845 | 0.97
E fixed | 0.659 | 0.575 | 0.629 | 0.791 | 0.67 | 0.804 | 0.829 | 0.917 | 0.862
F fixed | 0.883 | 1.23 | 1.05 | 1.04 | 0.86 | 0.978 | 0.971 | 0.957 | 0.974
G fixed | 1.02 | 1.11 | 1.15 | 1.17 | 0.959 | 1.58 | 1.23 | 1.24 | 1.15
H fixed | 0.842 | 0.985 | 1.28 | 1.14 | 1.39 | 1.04 | 1.12 | 1.04 | 1.17
I fixed | 1.23 | 1.34 | 0.907 | 0.881 | 1.03 | 0.824 | 0.927 | 0.875 | 0.866
K fixed | 0.949 | 0.924 | 0.875 | 0.887 | 1.04 | 0.919 | 0.881 | 0.945 | 0.979
L fixed | 0.796 | 1.33 | 0.896 | 0.937 | 1.15 | 1.01 | 0.933 | 0.875 | 0.866
M fixed | 1.01 | 1.27 | 0.872 | 0.954 | 1.02 | 1.16 | 0.98 | 0.96 | 0.885
N fixed | 0.759 | 0.726 | 1.05 | 0.979 | 0.956 | 0.966 | 0.985 | 0.917 | 0.906
P fixed | 1.15 | 0.703 | 0.759 | 1.03 | 1.1 | 1.08 | 1.27 | 1.22 | 1.16
Q fixed | 1.13 | 0.873 | 0.875 | 0.905 | 0.914 | 0.969 | 0.878 | 0.887 | 0.922
R fixed | 1.57 | 0.836 | 1.37 | 0.937 | 1.06 | 1.06 | 1.06 | 1.04 | 1.05
V fixed | 1.53 | 1.07 | 0.935 | 0.912 | 1.22 | 0.877 | 0.936 | 0.996 | 0.974
W fixed | 1.04 | 1.3 | 1.6 | 1.32 | 0.876 | 0.964 | 1.06 | 1.11 | 1.07
Y fixed | 0.948 | 1.17 | 1.09 | 1.07 | 1.03 | 0.935 | 1.06 | 1.06 | 1.11
pThr fixed | 0.648 | 0.686 | 0.733 | 1.08 | 0.83 | 0.792 | 0.923 | 1 | 1.01
pTyr fixed | 0.826 | 0.883 | 0.914 | 1.4 | 0.861 | 0.8 | 0.982 | 1.02 | 0.981
